B1: Hairpin Ribozyme (parent)
chain: GUCCUCUUUCACGUGCGCGUGAAAGAGAGAAGUGAACCAGAGAAACACACGUUGUGGUAUAUUACCUGGUA

Variants of: B1
Assay: self-cleavage, relative activity (ratio to wild type); higher = more cleavage; co-transcriptional

| Variant | self-cleavage |
| --- | --- |
| U52C G57A | 0.223 |
| U52C G57C | 0.123 |
| U52C A71U | 0.913 |
| G54C A59C | 0.195 |
| U52G A71C | 1.32 |
| U52G A71G | 0.654 |
| G51U U62A | 0.25 |
| G51A C65G | 0.287 |
| G51A C65A | 1.17 |
| G54C U62A | 0.186 |
| G54C U62C | 0.108 |
| G51C C66A | 0.184 |
| G51C C66U | 0.452 |
| G51C U52C | 1.16 |
| C50G U55C | 0.16 |
| G51A U58C | 1.09 |
| G54C G68A | 0.187 |
| G51U C65G | 0.354 |
| G51A G69C | 0.467 |
| G54C C65A | 0.194 |
| U53G A61C | 0.0932 |
| U53G A61G | 0.313 |
| G51A U53C | 1.28 |
| G54C G57U | 0.217 |

| Variant | self-cleavage |
| --- | --- |
| G54C G57C | 0.155 |
| U52C U62A | 0.32 |
| C50U A61C | 0.181 |
| C50U A61U | 0.13 |
| C50U G56U | 0.121 |
| G51A U52G | 0.981 |
| G51A U52C | 0.738 |
| G54U G69A | 0.122 |
| G51U U67A | 0.236 |
| U52C A64G | 0.546 |
| U52C A64C | 0.128 |
| G54C | 0.433 |
| G54A | 0.583 |
| G54U | 0.626 |
| U55A A71C | 0.697 |
| U55A A71G | 0.14 |
| G54A C65A | 0.497 |
| G54A C65G | 0.107 |
| C50A U53A | 0.384 |
| U53G U62C | 0.281 |
| G51A A64U | 0.22 |
| G51U G69A | 0.457 |
| G51U G69U | 0.287 |
| G54U U62C | 0.172 |

| Variant | self-cleavage |
| --- | --- |
| U52G G69C | 0.478 |
| U52C G56U | 0.149 |
| U52C G56C | 0.165 |
| U52C U58G | 0.606 |
| C50U U58G | 0.262 |
| C50U C65G | 0.161 |
| C50A C65A | 0.142 |
| C50A C65G | 0.0746 |
| U53A U60A | 1.08 |
| G51A U67A | 0.291 |
| G51A U67C | 0.296 |
| U55C C65A | 0.142 |
| G54U G68C | 0.212 |
| G54U G68A | 0.22 |
| U52A A61C | 0.256 |
| U52C U70C | 1.11 |
| U52C U70G | 0.988 |
| C50U U62A | 0.185 |
| U52G U53G | 1.39 |
| U52G U53A | 0.857 |
| C50A A61U | 0.281 |
| G51C U67A | 0.123 |
| C50A G57C | 0.133 |
| U52A U63A | 0.424 |

| Variant | self-cleavage |
| --- | --- |
| U52A U63C | 0.32 |
| U55C A64G | 0.132 |
| U55C A64C | 0.102 |
| U55C A61C | 0.0408 |
| G51A A59C | 0.181 |
| U52G G57A | 0.181 |
| U52G G57C | 0.216 |
| U52G G57U | 0.232 |
| G51A A71G | 0.934 |
| G51A A71U | 0.718 |
| G54U U67A | 0.207 |
| G54A U58A | 0.453 |
| G54U U70A | 0.657 |
| U53A U63C | 0.156 |
| U53C C65U | 0.274 |
| U52A G56A | 0.256 |
| U53A A59C | 0.0694 |
| G54A U63C | 0.216 |
| U52G C66U | 0.474 |
| G54U A71C | 1.1 |
| C50U A64U | 0.0365 |
| C50U A64C | 0.159 |
| U53G A59C | 0.166 |
| U53G A59G | 0.114 |

| Variant | self-cleavage |
| --- | --- |
| G54U A59C | 0.0613 |
| G54U U58A | 0.302 |
| U52C C65A | 1.2 |
| U52C C65U | 0.471 |
| U52A U67G | 0.408 |
| U52A U60G | 0.54 |
| C50U U52A | 0.456 |
| C50U U52C | 0.343 |
| G51A G56A | 0.197 |
| C50A U62G | 0.177 |
| C50A U62C | 0.147 |
| C50A U62A | 0.0965 |
| G51U G56A | 0.153 |
| G51U G56U | 0.0869 |
| U52C U53C | 1.07 |
| U52C U53G | 1 |
| C50U A59G | 0.204 |
| C50U A59C | 0.166 |
| U53A G54A | 0.68 |
| U55A U62G | 0.0995 |
| U55A A64C | 0.13 |
| U52C U67C | 0.274 |
| U52A G69U | 0.325 |
| U52A G69A | 0.464 |

| Variant | self-cleavage |
| --- | --- |
| U52G U70C | 0.605 |
| U53A A64U | 0.143 |
| G54A A59U | 0.148 |
| G54A A59G | 0.17 |
| C50G U52G | 0.312 |
| C50G G68U | 0.22 |
| U53C U70A | 1.09 |
| G51U U70C | 1.01 |
| G51U U70G | 0.887 |
| G51U U70A | 1.1 |
| U53C G57U | 0.234 |
| U53A A71C | 1.41 |
| U55C C66G | 0.191 |
| U55C C66A | 0.13 |
| U55A A59G | 0.163 |
| U55A A59C | 0.252 |
| G54C U70A | 0.216 |
| G54C U70G | 0.155 |
| G54A U60G | 0.204 |
| G54A G68U | 0.227 |
| C50G G69A | 0.152 |
| C50G G69C | 0.227 |
| U53C U58C | 1.26 |
| G54U C66U | 0.211 |

| Variant | self-cleavage |
| --- | --- |
| G54U C66A | 0.228 |
| U52G U62G | 0.0994 |
| U52G U62C | 0.126 |
| C50G U63G | 0.0983 |
| C50U G69C | 0.142 |
| C50U G69A | 0.112 |
| U55C A71C | 0.596 |
| U55C A71U | 0.16 |
| U52G C65U | 0.302 |
| U53C U62G | 0.122 |
| U55A G69A | 0.172 |
| U55A G69U | 0.146 |
| U53G U58A | 0.394 |
| U55A C66A | 0.188 |
| C50U G68U | 0.16 |
| U55A C65G | 0.19 |
| U52A C65G | 0.258 |
| G54A A61U | 0.254 |
| U53G A64U | 0.144 |
| U52A G68A | 0.337 |
| U52A G68U | 0.309 |
| U55A U58A | 0.273 |
| U55C U58C | 0.475 |

— the RNAGym collection of RNA variant scans (doi:10.7554/elife.80360)
